Tested on: MS2 coat protein
Assay: apparent KD of MS2 coat protein; designed switch direction (-1 OFF switch, 1 ON switch): -1; higher = weaker reporter binding
How it was run: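 Designed RNA switches sharing common flanks were transcribed on Illumina chips by stalled E. coli RNA polymerase. They were titrated with SNAP-549-labelled MS2 coat protein, from 0.7 or 1.5 nM doubling to 3 µM, in Tris-HCl pH 7.5 buffer with KCl, MgCl2, BSA, DTT, tRNA and Tween-20. Titrations ran without input, with 200 uM small-molecule ligand, or with an oligonucleotide input. The apparent KD of each design is the median over its clusters, after curve-fitting of normalised cluster fluorescence.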

[1] = input ligand: microRNA oligo, concentration not stated
[2] = Eterna round: R95, input ligand: FMN 200 uM
[3] = Eterna round: R95, input ligand: microRNA oligo, concentration not stated
[4] = Eterna round: R95, input ligand: none

Sequence	apparent KD of MS2 coat protein (input ligand: FMN 200 uM) [nM]	apparent KD of MS2 coat protein (input ligand: none) [nM]	apparent KD of MS2 coat protein [1] [nM]	apparent KD of MS2 coat protein [2] [nM]	apparent KD of MS2 coat protein [3] [nM]	apparent KD of MS2 coat protein [4] [nM]
CCAGCAAGUUCAGCUCGUCACAUGAGGAUCACCCAUGUUAAGUAAUCCUUCUCUUCUAGGUAGCGCCGGAGAGAGGG [Eternabot (Original) Solution 16] (Eterna round: R97, puzzle: Sensor, turn-off variant 1)	32.6	43.3				
CCGGAACAUGAGGAUCACCCAUGUCAGGAUAUUCCAAAAUCGUCGAUAGACGAUAACAGGAGAAGGGACACCGG [Mat - Exclusion 1 - Eli Mod - D30] (Eterna round: R97, puzzle: Exclusion 1)	20.4	15.7				
AGGAAACAUGAGGAUCACCCAUGUGAGGAUAUUUGAAAGAAAAGAAAAGAAAGAAGAAGAAGAAGGCACAAGAA [Merneith] (Eterna round: R96, puzzle: Exclusion 1)			23.8			
GCCUUGGGAGUCAGGAUAUACAAUAAAAUAAUUAAGUAGAAGGGACAUGAGGAUCACCCAUGUACAUUACAUUG [alecazam30] (Eterna round: R97, puzzle: Brourd's mod of Exclusion 4)	48	13.3				
GAAUAGGGAGGAUAUCCAAUAUAUGACAUGAGGAUCACCCAUGUUUCCACUCGUACCUCCGGAGAAGGCCCAUAAA [Ex5 #4] (Eterna round: R97, puzzle: Exclusion 5)	22.8	19.9				
GUAAUACAUGAGGAUCACCCAUGUUAGGAUAUCUGCAGGACGUCUCCCGUAUAUCCGUAGAGAAGGGACAGUGG [Eternabot (L1) Solution 20] (Eterna round: R97, puzzle: Exclusion 1)	43	33.6				
GUCACAUGGACAUAGGAUCACAUGAGGAUCACCCAUGUGACUAACAAGCUUUUUGUUCGUCUUAUGUCCAUGUGAAG [Stov1/15-B3] (Eterna round: R97, puzzle: Sensor, turn-off variant 1)	12.4	12				
UACCUGAGGCAAAGCUUUAGGUAUACAUGAGGAUCACCCAUGUAGGAUAUGGUAGGCUUUGCUUACCAGAAGGACAUGUUAAUU [Mat - Exclusion NG 3 - Mod of JL - D32] (Eterna round: R96, puzzle: Exclusion NG 3)	161	39.6	30.4			
UAUUGCUGAGGAUAUAUAUAGAGCAUUUUCCUCGUGACAGAACAUGAGGAUCACCCAUGUAGAAGGCAGAAGUG [Eternabot (L2) Solution 87] (Eterna round: R97, puzzle: Exclusion 2)	263	192				
UGUUGUUACGCAGGAUAUGGCCAACAGGCCCUAGGAUAUCCGAAAGGAGAAGGAGCGCCAACAGGCGAGAAGGGCGGGUUAACA [pwkr exNG2 2xF7 2xFMN.14] (Eterna round: R96, puzzle: Exclusion NG 2)	201	140	55.7			
ACUCACGCAGGAUAUACAUGAGGAUCACCCAUGUUCAAAGGGCGCGGGAACAUCGUCUGUAGAAGGGCGAACAU [jl-ex3-4.62 ViennaUCT mod] (Eterna round: R97, puzzle: Exclusion 3)	40.4	29				
CAAAAGCUAGGAUAUACAUGAGGAUCACCCAUGUCGCACUCUAGACACGCCAUACAUAGUAGAAGGAGCAAUCU [EX3 B.18] (Eterna round: R97, puzzle: Exclusion 3)	21.7	17.9				
UUUUGUUUGCGAGGAUAUGCUUUUAGUAAGUUAGCAGAAGGCGCGUUACAUAGAACCUCUUGUUACAUGAGGAUCACCCAUGUU [JR_ExcNG1_Sub036] (Eterna round: R96, puzzle: Exclusion NG 1)	179	168	110			
UUAUUAUAUGUAGGAUAUGCAUAUUGUUGUUAUGCAGAAGGACAUGAGGAUCACCCAUGUGUAUUAUUGUUAUAUAUUAUAUAU [Title] (Eterna round: R96, puzzle: Exclusion NG 1)			16.5			
UAGAUGUGAGGAUAUGGUAAAGAUAAGAUGAUGAAAGAACUCCAGAAGGCACAUGAGGAUCACCCAUGUAGAUG [JL-ex4-2.15 Jieux mod] (puzzle: Exclusion 4)				78.1	22.3	26
UAUAUGUCAGGAUAUCGCAACUGCGCGCGCAAGAAUCAUAACGAGAAGGGACAUGAGGAUCACCCAUGUACACU [I dont know] (puzzle: Exclusion 4)					18.1	
CAGUACUGAGGAUAUACAUGAGGAUCACCCAUGUGCUUCAGCUAGGAUACUAGCAUUAGUAGAAGGCAGUACUG [Fiskers Ex 3 828 mod 13] (Eterna round: R96, puzzle: Exclusion 3)	81	13.9	10.8			
GAGUACUCAGGAUAUGCAUGAGUAGUGAUGUAGAGAGUGUGACAUGAGGAUCACCCAUGUAGAAGGGAGGAAUG [Version #1] (Eterna round: R97, puzzle: Exclusion 2)	338	105				
UCAGGCUAUUAAACCGCCGACAUGAGGAUCACCCAUGUACUUCAUGCGCUAGCUUGCUCGUCUACCUCAAGGAUCCG [Eternabot (L2) Solution 24] (Eterna round: R97, puzzle: Sensor, turn-off variant 1)	67.7	68.6				
GCAAAAUAUCAGGAUAUGACUAGCUGCGGCUAGUCAGAAGGGAUAACAUGAGGAUCACCCAUGUGAUAAAGUGU [JR_Ex6_Sub029] (Eterna round: R97, puzzle: Exclusion 6)	66.7	60.4				
CGUCAACAUGAGGAUCACCCAUGUUAGGAUAUAGAGCCAGGGCACGACGCUAACCAGUCUAGAAGGGACGUGGG [Eternabot (Original) Solution 5] (Eterna round: R97, puzzle: Exclusion 1)	45.9	37.1				
GCAUUACAUGAGGAUCACCCAUGUGAGGAUAUUAGGGUCGCAAGCACGUCUAGCAGACUGAGAAGGCACGGGUG [Eternabot (L1) Solution 45] (Eterna round: R97, puzzle: Exclusion 1)	139	192				
UAUAUUGGAGGAUAUCUCUCAGUGAACAUGAGGAUCACCCAUGUUGGUGAACGACGGCACAGAGAAGGUCAACGCA [Eternabot (L2) Solution 61] (Eterna round: R97, puzzle: Exclusion 5)	314	499				
CUGAGCAGACGGAGAUCCAACAUGAGGAUCACCCAUGUCUCAUAAGCUUUUUGUUCAUCUUAUUGUACCUUGGUGCU [JL ViennaUCT Edcesobi mod 4] (puzzle: Sensor v3, turn-off variant 1)				149	24.6	252
UUAGAAUUGUUAGGAUAUUAAUUAUUGUUUAGUAUGAUCUACAUGAGGAUCACCCAUGUUAAAUAUAAGAAGGAACGUUAGAUU [JR_ExcNG2_Sub095] (Eterna round: R96, puzzle: Exclusion NG 2)	43.7	51.3	35.6			
CUUUUGUGAGGAUAUCAUUAGUAAAUAAAUAAAAUUACUACUGAGAAGGCACAUGAGGAUCACCCAUGUUCCUC [salish99_ex3_r3_072] (puzzle: Exclusion 4)					31.8	
GAUCCACAUGAGGAUCACCCAUGUGAGGAUAUGAUACUAUGUACUUCGGUACAUAGUAUCAGAAGGCAUAUGAA [Ex1-3: 47] (Eterna round: R96, puzzle: Exclusion 1)	199	41.7	33.2			
CCGCCAUGAGGAUAUUAGUAGUAGUCAGAAAAGACUAUUACUGAGAAGGCACAUGAGGAUCACCCAUGUAGCGG [Mat - Exclusion 4 - Eli Mod - D50] (Eterna round: R97, puzzle: Exclusion 4)	18.8	41				
AGCUAGUCAGUAGGAUAUGUAGGAUAUGUGGUUGAGGUUCACCCAACCACAUCAACGACAGAAGGACAGAAGGACUGGUUAGCA [pwkr exNG2 2xFMN 1xF5.5] (Eterna round: R96, puzzle: Exclusion NG 2)	2320	2810	1210			
UUUAAUUUUUUUUUUUUACAAGCUUUUUGCUCGUCUUAUACAUGAGGAUCACCCAUGUAAAUGGGAGGUAAAUUAUC [JMF 71] (puzzle: Sensor v3, turn-off variant 2)				80.7	133	113

Reference: the supplement of paper PMC9170038
